Each block holds one binder with its values, some of them ahead of it.
What was measured:
4H492-bH = target: T1, 4H492-bH; experiment: two-hybrid library CCNG1;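 further: natural log of median RNA to DNA barcode read ratio; higher means stronger binding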
T1 chain: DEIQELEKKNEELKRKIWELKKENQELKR

4H741-bH = target: T2, 4H741-bH; experiment: two-hybrid library CCNG1;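 further: natural log of median RNA to DNA barcode read ratio; higher means stronger binding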
T2 chain: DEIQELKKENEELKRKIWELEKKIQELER

4H454-bA = target: T3, 4H454-bA; experiment: two-hybrid library CCNG1;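 further: natural log of median RNA to DNA barcode read ratio; higher means stronger binding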
T3 chain: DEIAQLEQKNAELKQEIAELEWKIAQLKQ

4H568-bA = target: T4, 4H568-bA; experiment: two-hybrid library CCNG1;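 further: natural log of median RNA to DNA barcode read ratio; higher means stronger binding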
T4 chain: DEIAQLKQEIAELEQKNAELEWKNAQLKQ

4H607-bA = target: T5, 4H607-bA; experiment: two-hybrid library CCNG1
T5 chain: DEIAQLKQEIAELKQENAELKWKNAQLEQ

4H687-bA = target: T6, 4H687-bA; experiment: two-hybrid library CCNG1
T6 chain: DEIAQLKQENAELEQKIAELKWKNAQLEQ

4H717-bA = target: T7, 4H717-bA; experiment: two-hybrid library CCNG1
T7 chain: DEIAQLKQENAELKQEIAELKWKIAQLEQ

4H72-bA = target: T8, 4H72-bA; experiment: two-hybrid library CCNG1
T8 chain: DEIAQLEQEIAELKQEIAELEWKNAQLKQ

4H754-bA = target: T9, 4H754-bA; experiment: two-hybrid library CCNG1
T9 chain: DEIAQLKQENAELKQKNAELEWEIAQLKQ

4H797-bA = target: T10, 4H797-bA; experiment: two-hybrid library CCNG1
T10 chain: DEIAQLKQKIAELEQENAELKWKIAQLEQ

4H883-bA = target: T11, 4H883-bA; experiment: two-hybrid library CCNG1
T11 chain: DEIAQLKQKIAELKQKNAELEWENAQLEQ

4H908-bA = target: T12, 4H908-bA; experiment: two-hybrid library CCNG1
T12 chain: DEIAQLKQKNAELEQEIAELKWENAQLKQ

4H918-bA = target: T13, 4H918-bA; experiment: two-hybrid library CCNG1
T13 chain: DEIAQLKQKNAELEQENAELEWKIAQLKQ

4H953-bA = target: T14, 4H953-bA; experiment: two-hybrid library CCNG1
T14 chain: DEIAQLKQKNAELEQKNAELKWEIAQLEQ

4H967-bA = target: T15, 4H967-bA; experiment: two-hybrid library CCNG1
T15 chain: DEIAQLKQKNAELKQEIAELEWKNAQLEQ

4H3414-AA = target: T16, 4H3414-AA; experiment: two-hybrid library CCmax
T16 chain: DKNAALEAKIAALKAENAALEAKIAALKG

4H3595-AA = target: T17, 4H3595-AA; experiment: two-hybrid library CCmax; conditions: mean of both orientations
T17 chain: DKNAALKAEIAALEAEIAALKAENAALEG

4H3629-AA = target: T18, 4H3629-AA; experiment: two-hybrid library CCmax; conditions: mean of both orientations
T18 chain: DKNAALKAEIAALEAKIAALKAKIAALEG

4H3782-AA = target: T19, 4H3782-AA; experiment: two-hybrid library CCmax; conditions: mean of both orientations
T19 chain: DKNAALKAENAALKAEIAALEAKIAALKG

4H380-AA = target: T20, 4H380-AA; experiment: two-hybrid library CCmax; conditions: mean of both orientations
T20 chain: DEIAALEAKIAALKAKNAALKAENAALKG

4H3939-AA = target: T21, 4H3939-AA; experiment: two-hybrid library CCmax; conditions: mean of both orientations
T21 chain: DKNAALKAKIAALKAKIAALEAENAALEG

4H3969-AA = target: T22, 4H3969-AA; experiment: two-hybrid library CCmax; conditions: mean of both orientations
T22 chain: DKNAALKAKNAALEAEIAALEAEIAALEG

4H446-AA = target: T23, 4H446-AA; experiment: two-hybrid library CCmax; conditions: mean of both orientations
T23 chain: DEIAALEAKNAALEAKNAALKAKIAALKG

4H464-AA = target: T24, 4H464-AA; experiment: two-hybrid library CCmax; conditions: mean of both orientations
T24 chain: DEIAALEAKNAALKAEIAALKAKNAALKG

4H483-AA = target: T25, 4H483-AA; experiment: two-hybrid library CCmax; conditions: mean of both orientations
T25 chain: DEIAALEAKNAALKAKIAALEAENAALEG

4H63-AA = target: T26, 4H63-AA; experiment: two-hybrid library CCmax; conditions: mean of both orientations
T26 chain: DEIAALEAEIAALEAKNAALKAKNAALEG

4H3940-AA = target: T27, 4H3940-AA; experiment: two-hybrid library CCmax
T27 chain: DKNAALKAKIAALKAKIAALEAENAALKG

4H510-AA = target: T28, 4H510-AA; experiment: two-hybrid library CCmax; conditions: mean of both orientations
T28 chain: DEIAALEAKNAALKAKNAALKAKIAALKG

4H775-AA = target: T29, 4H775-AA; experiment: two-hybrid library CCmax; conditions: mean of both orientations
T29 chain: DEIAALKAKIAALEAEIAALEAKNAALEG

4H816-AA = target: T30, 4H816-AA; experiment: two-hybrid library CCmax; conditions: mean of both orientations
T30 chain: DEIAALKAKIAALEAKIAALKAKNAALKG

4H87-AA = target: T31, 4H87-AA; experiment: two-hybrid library CCmax; conditions: mean of both orientations
T31 chain: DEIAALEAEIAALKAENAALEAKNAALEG

- interaction score (4H492-bH): 0.6
- interaction score (4H741-bH): -0.317
Binder: DEIQELEKKNEELKRKIWELKKENQELKR [4H492-bH]

- interaction score (4H454-bA): 1.86
- interaction score (4H568-bA): -0.589
- interaction score (4H607-bA): -0.773
- interaction score (4H687-bA): 1.48
- interaction score (4H717-bA): 0.262
- interaction score (4H72-bA): -0.678
- interaction score (4H754-bA): -0.711
- interaction score (4H797-bA): -1.06
- interaction score (4H883-bA): -0.0808
- interaction score (4H908-bA): -0.182
- interaction score (4H918-bA): -0.912
- interaction score (4H953-bA): 0.62
- interaction score (4H967-bA): -0.131
Binder: DEIAQLEQKNAELKQEIAELEWKIAQLKQ [4H454-bA]

- interaction score (4H3414-AA): -0.215
- interaction score (4H3595-AA): -1.09
- interaction score (4H3629-AA): 0.922
- interaction score (4H3782-AA): -1.23
- interaction score (4H380-AA): -0.842
- interaction score (4H3939-AA): -1.42
- interaction score (4H3969-AA): -1.31
- interaction score (4H446-AA): -0.818
- interaction score (4H464-AA): 1.47
- interaction score (4H483-AA): 0.796
- interaction score (4H63-AA): -0.187
Binder: DKNAALEAKIAALKAENAALEAKIAALKG [4H3414-AA]

- interaction score (4H3940-AA): 0.422
- interaction score (4H510-AA): -1.47
- interaction score (4H775-AA): -0.249
- interaction score (4H816-AA): -0.0778
- interaction score (4H87-AA): -0.615
Binder: DKNAALKAKIAALKAKIAALEAENAALKG [4H3940-AA]

From PMC10397247
